Laboratory results published in patent US8686110B2, “Therapeutic pro-apoptotic BH3-like molecules and methods for generating and/or selecting the same” (The Walter and Eliza Hall Institute of Medical Research, priority 2005, dated 2014).

Target: T1, Mcl-1 (Mus musculus, UniProt P97287)
T1 construct: GST (cleaved yes); made in house; host or cells: E. coli
Assay: Phage ELISA (titration and competition) of phage-displayed BH3 domains
Type: binding
Settings: Bak BH3 mutants; from Table 4e
Text: In order to create a FLAG-tagged form of the sequence, an oligonucleotide encoding the FLAG epitope was employed to loop-in the required sequence at the N-terminus of the peptide sequences, already fused to gene 3 as described above, using the Kunkel mutagenesis method (Kunkel et al. Methods Enzymol 204:125-139, 1991). For the alanine scanning constructs and other point mutations of the BimBH3 or other BH3 sequence, oligonucleotides with the desired codon mismatch were employed in Kunkel mutagenesis reactions on the FLAG-BimBH3 or FLAG-BadBH3 template. […]
All ELISA's were performed as described previously (Fairlie et al. J Biol Chem 279:2125-2134, 2004). […] Following washing with PBS/Tween, bound phage were detected using a horseradish peroxidase-conjugated anti-M13 antibody. […]
In an initial assay, the BimBH3 and other BH3 phage were tested for their ability to bind directly to immobilised Bcl-xL and Mcl-1. […] The specificity of the interactions were further assessed using a competition assay in which phage binding to the immobilised protein was competed with the corresponding recombinant protein in solution. The IC50 values obtained are as presented in Table 3 and were very similar to those determined with BimBH3 and BadBH3 synthetic peptides as measured by surface plasmon resonance on a BIAcore instrument (Chen et al. 2005 supra) and using isothermal calorimetry (unpublished data). […]

T1 sequence (P97287 152-308 limits assumed): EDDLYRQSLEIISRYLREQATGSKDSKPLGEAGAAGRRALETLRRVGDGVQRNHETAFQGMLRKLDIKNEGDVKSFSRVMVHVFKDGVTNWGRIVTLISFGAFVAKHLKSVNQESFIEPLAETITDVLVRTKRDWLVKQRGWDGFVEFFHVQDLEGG

| Substance | selectivity among pro-survival proteins, in words |
| --- | --- |
| I19A (PSSTMGQVGRQLAIIGDDANRRYDSE) [Bim I19A] | selective for Mcl-1 |
| V8A (PSSTMGQAGRQLAIIGDDINRRYDSE) [Bim V8A] | selective for Mcl-1 |
